Consider three molecules from patent publication US20230392126A1, “TISSUE ORGANOIDS” (priority 2016, published 2023).

The nature of data set [1]: Cocaine hydrolysis activity in vitro (clearance assay with conditioned medium).
Data set [2] has as its system epidermal progenitor cells. The data set can be described thus: Suicide gene-induced cell death in epidermal progenitor cells upon prodrug treatment. In kind it is cell-based. The conditions noted are these: ganciclovir and 5-fluorocytosine, respectively; data not shown. From the text: To test this possibility, a Rosa26 targeting vector encoding phenylalanine ammonia lyase (PAL) (SEQ ID NO: 51) together with inducible “suicide” genes HSV-TK (Herpes Simplex Virus Thymidine Kinase) (SEQ ID NO: 52) and yCD (yeast cytosine deaminase) (SEQ ID NO: 53) was used for epidermal progenitor cell transfection.

A short description of data set [3]: mGLP1 expression in blood/plasma of grafted mice fed dox food. In kind it is in vivo, mouse. Here is the method: The epidermal progenitor cells were isolated from newborn pups of CD1 or C57BL/6J mice. […] Targeted clones were selected in the medium containing puromycin, and correct incorporation into the Rosa26 locus was confirmed by PCR and southern blots (FIG. 25B). Mouse skin substitute was prepared by seeding the targeted cells to the acellularized newborn dermis and differentiation upon exposure to the air/liquid interphase and the resultant tissues were transplanted to CD1 or C57BL/6J mice (GLP1).
Expression of mGLP1 in GLP1 mice was stable for up to 4 months in the presence of dox (FIG. 25D).
There was a dose-dependent release of GLP1 in plasma (not shown). Expression of mGLP1 in mGLP1 mice was stable for up to 4 months in the presence of dox (FIG. 25D).

A short description of data set [4]: Ethanol-induced CPP in GLP1 and GWT mice. In kind it is in vivo, mouse. The conditions noted are these: 2 g/kg ethanol i.p., dox food, vs mock grafted (GWT). From the text: FIG. 26. mGLP1 expression on ethanol-induced CPP. […] Following 2 free explorations (Pre-test) on day 1, separate groups of GLP1 and GWT mice (n=9 each) received alternative ethanol (2 g/kg) and saline i.p. injections twice daily for the next 4 days, as previously described (Chen et al., Dopamine D1 and D3 receptors are differentially involved in cue-elicited cocaine seeking. J. Neurochem. 114, 530-541 (2010); Kong et al., Activation of dopamine D3 receptors inhibits reward-related learning induced by cocaine. Neurosci. 176, 152-161 (2011)). CPP expression was tested on day 6. Results represent mean±SEM time spent on the drug-paired side minus the saline-paired side. […] F value was calculated and Newman-Keuls post-hoc test was performed (Chen et al., 2010; Kong et al., 2011). […]
(§1) Following 2 free explorations (Pre-test) on day 1, separate groups of GLP1 and GWT mice (n=9 each) received alternative ethanol (2 g/kg) and saline i.p. injections twice daily for the next 4 days, as previously described (Chen et al., Dopamine D1 and D3 receptors are differentially involved in cue-elicited cocaine seeking. J. Neurochem. 114, 530-541 (2010); Kong et al., Activation of dopamine D3 receptors inhibits reward-related learning induced by cocaine. Neurosci. 176, 152-161 (2011)). […] F value was calculated and Newman-Keuls post-hoc test was performed (Chen et al., 2010; Kong et al., 2011). […]

Data set [5] in a line: Nicotine-induced CPP in GLP1 and GWT mice. In kind it is in vivo, mouse. Particulars: 0.4 mg/kg nicotine i.p., dox food, vs GWT. The method, then:
FIG. 29 mGLP1 expression on nicotine-induced CPP. […] Following 2 free explorations (Pre-test) on day 1, separate groups of GLP1 and GWT mice (n=7 each) received alternative nicotine (0.4 mg/kg) and saline i.p. injections twice daily for the next 4 days, as previously described (Chen et al., 2010; Kong et al., 2011). CPP expression was tested on day 6. Results represent mean±SEM time spent on the drug-paired side minus the saline-paired side. Repeated-measures ANOVA with test days as the within group factor and status of grafting as the between-subject factor were used (Chen et al., 2010; Kong et al., 2011). F value was calculated and Newman-Keuls post-hoc test was performed (Chen et al., 2010; Kong et al., 2011). GLP1 and WT mice were on dox food for the entire duration.
as §1, with “mGLP1” for “GLP1”, “(n=7” for “mice (n=9”, “nicotine (0.4 mg/kg)” for “ethanol (2 g/kg)”

B1: mBChE: mouse BChE with similar point mutations (SEQ ID NO: 43) (protein)
chain: MQTQHTKVTQTHFLLWILLLCMPFGKSHTEEDFIITTKTGRVRGLSMPVLGGTVTAFLGIPYAQPPLGSLRFKKPQPLNKWPDIHNATQYANSCYQNIDQAFPGFQGSEMWNPNTNLSEDCLYLNVWIPVPKPKNATVMVWIYGGGFQTGTSSLPVYDGKFLARVERVIVVSMNYRVGALGFLAFPGNPDAPGNMGLFDQQLALQWVQRNIAAFGGNPKSITIFGESSGAASVSLHLLCPQSYPLFTRAILESGSANAPWAVKHPEEARNRTLTLAKFTGCSKENEMEMIKCLRSKDPQEILRNERFVLPSDSALGINFGPTVDGDFLTDMPHTLLQLGKVKKAQILVGVNKDEGTWFLVGGAPGFSKDNDSLITRKEFQEGLNMYFPGVSRLGKEAVLFYYVDWLGEQSPEVYRDALDDVIGDYNIICPALEFTKKFAELENNAFFYFFEHRSSKLPWPEWMGVMHGYEIEFVFGLPLGRRVNYTRAEEIFSRSIMKTWANFAKYGHPNGTQGNSTMWPVFTSTEQKYLTLNTEKSKIYSKLRAPQCQFWRLFFPKVLEMTGDIDETEQEWKAGFHRWSNYMMDWQNQFNDYTSKKESCTAL
modifications: Mouse mutant BChE
Consider B1, for which, in data set [1], the “cocaine hydrolysis activity of conditioned medium” value was “only residual activity in cocaine hydrolysis”.

B2: yCD: inducible suicide gene, yeast cytosine deaminase (SEQ ID NO: 53), prodrug 5-fluorocytosine (protein)
chain: MVTGGMASKWDQKGMDIAYEEAALGYKEGGVPIGGCLINNKDGSVLGRGHNMRFQKGSATLHGEISTLENCGRLEGKVYKDTTLYTTLSPCDMCTGAIIMYGIPRCVVGENVNFKSKGEKYLQTRGHEVVVVDDERCKKIMKQFIDERPQDWFEDIGE
modifications: misc_feature 1..474 yCD
Turning to B2, the “cell death upon prodrug treatment” value in data set [2] is listed as “efficiently induced cell death upon treatment with prodrugs”.

B3: mGLP1: Gly8-mutant mGLP1 and mouse IgG-Fc fragment fusion protein (SEQ ID NO: 45), dox-dependent promoter, from skin grafts (protein)
chain: MYRMQLLSCIALSLALVTNSHGEGTFTSDVSSYLEGQAAKEFIAWLVKGRGRSGCKPCICTVPEVSSVFIFPPKPKDVLTITLTPKVTCVVVDISKDDPEVQFSWFVDDVEVHTAQTQPREEQFNSTFRSVSELPIMHQDWLNGKEFKCRVNSAAFPAPIEKTISKTKGRPKAPQVYTIPPPKEQMAKDKVSLTCMITDFFPEDITVEWQWNGQPAENYKNTQPIMDTDGSYFVYSKLNVQKSNWEAGNTFTCSVLHEGLHNHHTEKSLSHSPGK
modifications: mGLP-1 (GLY8 mutant with IgG-Fc fusion)
For the molecule B3, the “time to significantly enhanced levels of mGLP1 in the blood” value in data set [3] (dox food) is on record as not above 3 days. The “duration of stable mGLP1 expression” value in data set [3] (in the presence of dox) is “up to 4 months”. Also, the “release of mGLP1 in plasma vs dox dose” value in data set [3] (not shown) was “dose-dependent release of mGLP1 in plasma”. Also, in data set [4], the “ethanol-induced CPP” value is given as “attenuated ethanol-induced CPP”. The “nicotine-induced CPP” value in data set [5] was “attenuated nicotine-induced CPP”.
